Source: patent US20110212528A1

Molecular target: GAL4/CfEcR-DEF (Choristoneura fumiferana)
Experiment: cell-based or functional assay

Row | Substance | fold induction (maximum, reporter gene transactivation, NIH3T3 cells, GS-E) [fold]
1 | VP16/HsRXRβ-EF substitution mutant A495S (receptor) | 30
2 | VP16/HsRXRβ-EF substitution mutant A528S (receptor) | 21
